*1 amine or outer side, *2 acyl side, *3 side chain or, on linkers, in order; H or OH if unused. Primed or numbered codes have the meaning given here. Side-chain parts run from the residue outwards. [ ]: non-standard residue; d: D form. The star is where a group is joined. PEG2DGA = 2-[2-[3-[2-[2-(3-aminopropoxy)ethoxy]ethoxy]propylamino-2-oxo-ethoxy]acetyl; PEG12 = NCCOCCOCCOCCOCCOCCOCCOCCOCCOCCOCCOCCOCCC(=O)O; γGlu = O=C(O)[C@H](CCC(=O)[*:2])N[*:1]; 1Nal = N[C@@H](Cc1cccc2ccccc12)C(=O)O; Stearoyl = CCCCCCCCCCCCCCCCCC(=O)*; Palmitoyl = CCCCCCCCCCCCCCCC(=O)*; Nle = CCCC[C@H](N)C(=O)O; PEG2′ = PEG2 spacer unit; PEG2″ = not defined here; Aib = CC(C)(N)C(=O)O
T1: RXFP1 receptor (UniProt Q9HBX9 1-757, limits assumed)
T1 sequence (looked up): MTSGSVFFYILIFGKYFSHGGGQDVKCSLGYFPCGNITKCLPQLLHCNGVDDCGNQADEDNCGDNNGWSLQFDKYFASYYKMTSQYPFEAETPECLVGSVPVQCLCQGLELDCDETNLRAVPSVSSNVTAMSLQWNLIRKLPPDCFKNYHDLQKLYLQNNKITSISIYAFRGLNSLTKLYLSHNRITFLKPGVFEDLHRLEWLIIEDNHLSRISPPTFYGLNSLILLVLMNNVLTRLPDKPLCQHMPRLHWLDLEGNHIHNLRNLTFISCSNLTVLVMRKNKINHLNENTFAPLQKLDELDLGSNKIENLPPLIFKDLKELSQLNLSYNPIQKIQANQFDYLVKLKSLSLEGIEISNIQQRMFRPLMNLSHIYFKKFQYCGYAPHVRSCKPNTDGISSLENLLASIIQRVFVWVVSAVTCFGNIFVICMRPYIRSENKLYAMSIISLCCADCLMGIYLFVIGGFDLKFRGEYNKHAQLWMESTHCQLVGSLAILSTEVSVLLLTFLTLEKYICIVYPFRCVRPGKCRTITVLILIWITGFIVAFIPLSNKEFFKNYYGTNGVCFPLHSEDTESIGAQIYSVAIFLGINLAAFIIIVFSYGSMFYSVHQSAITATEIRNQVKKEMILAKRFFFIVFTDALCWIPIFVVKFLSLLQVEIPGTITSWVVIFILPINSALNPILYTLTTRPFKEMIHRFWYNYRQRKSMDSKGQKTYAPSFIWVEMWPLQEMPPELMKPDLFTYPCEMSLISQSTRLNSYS

B1: peptide of SEQ ID NO: 111 (peptide)
peptide: LEGREKVRAXIXXEGQSTWSXRKKX
modifications: Ac-L-E-G-R-E-K-V-R-A-K(Ac)-I-Aib-Aib-E-G-Q-S-T-W-S-Aib-R-K-K-K(PEG2-PEG2-PEG2-gE-gE-gE-gE-gE-Stea)-NH2
B2: peptide of SEQ ID NO: 97 (peptide)
peptide: Ac-LEGREKVRAQI[Aib][Aib]EG[Nle]STWS[Aib]RKKK([PEG12-γGlu-γGlu-γGlu-Stearoyl])-NH2
SMILES: CCCCCCCCCCCCCCCCCC(=O)N[C@@H](CCC(=O)N[C@@H](CCC(=O)N[C@@H](CCC(=O)NCCOCCOCCOCCOCCOCCOCCOCCOCCOCCOCCOCCOCCC(=O)NCCCC[C@H](NC(=O)[C@H](CCCCN)NC(=O)[C@H](CCCCN)NC(=O)[C@H](CCCNC(=N)N)NC(=O)C(C)(C)NC(=O)[C@H](CO)NC(=O)[C@H](Cc1c[nH]c2ccccc12)NC(=O)[C@@H](NC(=O)[C@H](CO)NC(=O)[C@H](CCCC)NC(=O)CNC(=O)[C@H](CCC(=O)O)NC(=O)C(C)(C)NC(=O)C(C)(C)NC(=O)[C@@H](NC(=O)[C@H](CCC(N)=O)NC(=O)[C@H](C)NC(=O)[C@H](CCCNC(=N)N)NC(=O)[C@@H](NC(=O)[C@H](CCCCN)NC(=O)[C@H](CCC(=O)O)NC(=O)[C@H](CCCNC(=N)N)NC(=O)CNC(=O)[C@H](CCC(=O)O)NC(=O)[C@H](CC(C)C)NC(C)=O)C(C)C)[C@@H](C)CC)[C@@H](C)O)C(N)=O)C(=O)O)C(=O)O)C(=O)O

Target: T1, RXFP1 receptor
Assay: cell-based or functional assay

EC50 (nM), OVCAR 5 cells (cAMP) [nM] | EMax, OVCAR 5 cells (cAMP) [%] | Binder
0.16 | 90 | Ac-LEGREKVRAQI[Aib][Aib]EG[Nle]STWS[Aib]RKK([PEG2″-PEG2″-γGlu-γGlu-PEG2″-γGlu-Stearoyl])-NH2 [peptide of SEQ ID NO: 100]
1.63 | 71 | Ac-LEGREKVRAK(Ac)I[Aib][Aib]EG[Nle]ST[1Nal]S[Aib]RK(Ac)LK([PEG2′-PEG2′-PEG2′-γGlu-γGlu-γGlu-Stearoyl])-NH2 [peptide of SEQ ID NO: 87]
0.74 | 99 | Ac-LEGREKVRAQI[Aib][Aib]EG[Nle]STWS[Aib]RKKK([PEG2′-PEG2′-γGlu-γGlu-γGlu-PEG2′-Stearoyl])-NH2 [peptide of SEQ ID NO: 98]
0.63 | 85 | Ac-LEGREKVRAQI[Aib][Aib]EG[Nle]STWS[Aib]RKKK[PEG2″][PEG2″][PEG2″][γGlu][γGlu][γGlu]K([γGlu-Palmitoyl])-NH2 [peptide of SEQ ID NO: 107]
0.01 | 88 | Ac-LEGREKVRAK(Ac)I[Aib][Aib]EG[Nle]STWS[Aib]RKKK([PEG2′-PEG2′-PEG2′-PEG2′-γGlu-γGlu-γGlu-Stearoyl])-NH2 [peptide of SEQ ID NO: 91]
0.15 | 98 | Ac-LEGREKVRAQI[Aib][Aib]EG[Nle]STWS[Aib]RKKK[PEG2″][PEG2″][PEG2″][γGlu][γGlu]K([γGlu-Palmitoyl])-NH2 [peptide of SEQ ID NO: 109]
0.08 | 80 | Ac-LEGREKVRAK(Ac)I[Aib][Aib]EG[Nle]STWS[Aib]RKKK([PEG2″-PEG2″-γGlu-γGlu-γGlu-PEG2″-γGlu-Stearoyl])-NH2 [peptide of SEQ ID NO: 102]
0.07 | 89 | Ac-LEGREKVRAK(Ac)I[Aib][Aib]EG[Nle]STWS[Aib]RKK(Ac)K([PEG2′-PEG2′-PEG2′-PEG2′-γGlu-γGlu-γGlu-Stearoyl])-NH2 [peptide of SEQ ID NO: 90]
0.09 | 79 | Ac-LEGREKVRAK(Ac)I[Aib][Aib]EG[Nle]ST[1Nal]S[Aib]RKKK([PEG2″-PEG2″-γGlu-γGlu-γGlu-PEG2″-γGlu-Stearoyl])-NH2 [peptide of SEQ ID NO: 103]
0.21 | 92 | B1
0.16 | 86 | Ac-LEGREKVRAK(Ac)I[Aib][Aib]EG[Nle]STWS[Aib]RKK(Ac)K([PEG2″-PEG2″-γGlu-γGlu-PEG2″-γGlu-Stearoyl])-NH2 [peptide of SEQ ID NO: 101]
0.03 | 88 | Ac-LEGREKVRAQI[Aib][Aib]EG[Nle]STWS[Aib]RKKK([γGlu-γGlu-PEG2″-PEG2″-γGlu-Stearoyl])-NH2 [peptide of SEQ ID NO: 105]
0.17 | 80 | Ac-LEGREKVRAQI[Aib][Aib]EG[Nle]STWS[Aib]RKK[PEG2″][PEG2″][PEG2″][γGlu][γGlu][γGlu]K([γGlu-Palmitoyl])-NH2 [peptide of SEQ ID NO: 110]
0.26 | 82 | Ac-LEGREKVRAQI[Aib][Aib]EG[Nle]STWS[Aib]RKKK([PEG2′-PEG2′-PEG2′-PEG2′-γGlu-γGlu-γGlu-Stearoyl])-NH2 [peptide of SEQ ID NO: 92]
1.77 | 89 | Ac-LEGREKVRAK(Ac)I[Aib][Aib]EG[Nle]STWS[Aib]RKK(Ac)K([PEG2DGA-PEG2DGA-PEG2DGA-γGlu-γGlu-γGlu-Stearoyl])-NH2 [peptide of SEQ ID NO: 96]
0.11 | 74 | Ac-LEGREKVRAQI[Aib][Aib]EG[Nle]STWS[Aib]RKKK([PEG2′-PEG2′-PEG2′-γGlu-γGlu-γGlu-γGlu-Stearoyl])-NH2 [peptide of SEQ ID NO: 88]
14.7 | 89 | Ac-LEGREKVRAQI[Aib][Aib]EG[Nle]STWS[Aib]RK[PEG2″][PEG2″]K([γGlu-γGlu-γGlu-Palmitoyl])-NH2 [peptide of SEQ ID NO: 11]
0.01 | 87 | Ac-LEGREKVRAQI[Aib][Aib]EG[Nle]STWS[Aib]RKKK([PEG2′-PEG2′-γGlu-γGlu-PEG2′-γGlu-Stearoyl])-NH2 [peptide of SEQ ID NO: 99]
2.74 | 90 | Ac-LEGREKVRAK(Ac)I[Aib][Aib]EG[Nle]STWS[Aib]RKK(Ac)K([PEG2DGA-γGlu-γGlu-γGlu-Stearoyl])-NH2 [peptide of SEQ ID NO: 94]
0.16 | 89 | Ac-LEGREKVRAQI[Aib][Aib]EG[Nle]STWS[Aib]RKK([γGlu-γGlu-PEG2″-PEG2″-γGlu-Stearoyl])-NH2 [peptide of SEQ ID NO: 104]
0.03 | 79 | Ac-LEGREKVRAK(Ac)I[Aib][Aib]EG[Nle]STWS[Aib]RKKK([PEG2′-PEG2′-PEG2′-γGlu-γGlu-γGlu-γGlu-Stearoyl])-NH2 [peptide of SEQ ID NO: 89]
4.92 | 98 | B2
1.03 | 87 | Ac-LEGREKVRAK(Ac)I[Aib][Aib]EG[Nle]STWS[Aib]RKK(Ac)K([PEG2DGA-PEG2DGA-γGlu-γGlu-γGlu-Stearoyl])-NH2 [peptide of SEQ ID NO: 95]
0.34 | 93 | Ac-LEGREKVRAQI[Aib][Aib]EG[Nle]STWS[Aib]RKKK([γGlu-γGlu-PEG2″-PEG2″-PEG2″-γGlu-Stearoyl])-NH2 [peptide of SEQ ID NO: 106]
18.9 | 96 | Ac-LEGREKVRAQI[Aib][Aib]EG[Nle]STWS[Aib]RK[PEG2″]K([γGlu-γGlu-γGlu-Palmitoyl])-NH2 [peptide of SEQ ID NO: 10]
0.14 | 87 | Ac-LEGREKVRAQI[Aib][Aib]EG[Nle]STWS[Aib]RKKK([PEG2′-PEG2′-PEG2′-PEG2′-PEG2′-γGlu-γGlu-γGlu-Stearoyl])-NH2 [peptide of SEQ ID NO: 93]
0.15 | 94 | Ac-LEGREKVRAQI[Aib][Aib]EG[Nle]STWS[Aib]RKKK[PEG2″][PEG2″][PEG2″][PEG2″][γGlu][γGlu][γGlu]K([γGlu-Palmitoyl])-NH2 [peptide of SEQ ID NO: 108]

— patent US20190233493A1 (Sanofi, published 2019)
